Measurements published in patent US20230257479A1 (Genmab, published 2023).

Tests used:
[1] = target: T1, full length human 5T4 (SEQ ID NO: 1) on cells (human, UniProt Q13641 32-420); assay: flow cytometry, HEK-293 cells transfected with human 5T4, PE secondary [II)B]
T1 construct: Uniprot Q13641; residues 1-31 are the signal peptide; Used both for transfected HEK-293 cells and for 5T4-expressing human tumor cell lines
T1 sequence: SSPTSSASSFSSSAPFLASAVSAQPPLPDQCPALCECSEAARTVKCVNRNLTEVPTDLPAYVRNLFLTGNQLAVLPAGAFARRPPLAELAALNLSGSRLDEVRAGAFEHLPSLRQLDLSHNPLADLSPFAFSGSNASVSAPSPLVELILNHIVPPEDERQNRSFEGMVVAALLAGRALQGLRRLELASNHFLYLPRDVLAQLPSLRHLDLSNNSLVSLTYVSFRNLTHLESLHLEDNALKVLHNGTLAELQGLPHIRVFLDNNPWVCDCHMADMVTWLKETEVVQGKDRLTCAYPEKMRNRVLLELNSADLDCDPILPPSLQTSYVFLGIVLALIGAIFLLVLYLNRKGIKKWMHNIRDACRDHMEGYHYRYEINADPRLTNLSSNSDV

[2] = target: T1, full length human 5T4 (SEQ ID NO: 1) on …; assay: flow cytometry, MDA-MB-231 cells, PE secondary [III)B]
[3] = target: T2, full length cynomolgus monkey 5T4 on transfected HEK-293 cells (cynomolgus monkey, UniProt Q4R8Y9 35-420); assay: flow cytometry, HEK-293 cells transfected with cynomolgus monkey 5T4, FITC secondary [I)B]
T2 construct: Uniprot Q4R8Y9; residues 1-34 are the signal peptide; also called cynomolgus 5T4
T2 sequence: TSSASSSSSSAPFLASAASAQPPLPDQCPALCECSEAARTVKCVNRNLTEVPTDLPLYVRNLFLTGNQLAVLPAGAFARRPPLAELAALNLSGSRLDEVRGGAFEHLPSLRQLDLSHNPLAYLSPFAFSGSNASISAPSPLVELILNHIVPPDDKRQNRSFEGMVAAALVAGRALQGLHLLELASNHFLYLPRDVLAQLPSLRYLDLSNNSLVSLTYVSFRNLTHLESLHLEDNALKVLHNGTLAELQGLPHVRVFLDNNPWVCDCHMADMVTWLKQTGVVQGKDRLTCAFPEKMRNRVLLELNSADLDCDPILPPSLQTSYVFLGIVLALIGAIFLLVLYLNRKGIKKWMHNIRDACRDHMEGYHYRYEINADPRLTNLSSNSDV
Protocol: (§1) Experiments were performed in technical duplicate. After washing twice in staining buffer, cells were incubated in 50 µL secondary antibody at 4° C. for 30 min. […] Cells were washed twice in staining buffer, re-suspended in 30 µL staining buffer and analyzed on an iQue Screener (Intellicyt Corporation, USA). Binding curves were analyzed using non-linear regression (sigmoidal dose-response with variable slope) using GraphPad Prism V7.02 software (GraphPad Software, San Diego, CA, USA).

[4] = target: T1, full length human 5T4 (SEQ ID NO: 1) on …; assay: flow cytometry, HeLa cells, PE secondary [II)B]
Protocol: (§2) Mono- and bivalent binding of 5T4 antibodies to HeLa cells was determined by flow cytometry. Cells were incubated with increasing concentrations of antibodies. After secondary labelling with Phycoerythrin (PE)-conjugated goat-anti-human IgG F(ab′)2, the mean fluorescence intensity (MFI) was determined by flow cytometry.
(§3) After washing twice in staining buffer, cells were incubated in 50 µL secondary antibody at 4° C. for 30 min. […] Next, cells were washed twice in staining buffer, re-suspended in 120 µL staining buffer and analyzed on a BD LSRFortessa FACS (BD Biosciences, USA). Binding curves were analyzed using non-linear regression (sigmoidal dose-response with variable slope) using GraphPad Prism V7.02 software (GraphPad Software, San Diego, CA, USA).

[5] = target: T1, full length human 5T4 (SEQ ID NO: 1) on …; assay: flow cytometry, MDA-MB-231 cells, FITC secondary [I)C]
Protocol: Binding of CD3x5T4 bispecific and 5T4 monospecific antibodies to 5T4-positive human tumor cells. Mono- and bivalent binding of 5T4 antibodies to HeLa cells (left panels) or MDA-MB-231 cells (right panels) was determined by flow cytometry. Cells were incubated with increasing concentrations of antibodies. After secondary labelling with FITC-conjugated goat-anti-human IgG F(ab′)2, the MFI was determined by flow cytometry.
as §3

[6] = target: T1, full length human 5T4 (SEQ ID NO: 1) on …; assay: flow cytometry, HeLa cells, FITC secondary [I)C]
Protocol: as §3

[7] = target: T1, full length human 5T4 (SEQ ID NO: 1) on …; assay: flow cytometry, HEK-293 cells transfected with human 5T4, FITC secondary [I)B]
Protocol: as §1

[8] = target: T2, full length cynomolgus monkey 5T4 on …; assay: flow cytometry, HEK-293 cells transfected with cynomolgus monkey 5T4, PE secondary [II)B]
[9] = target: T2, full length cynomolgus monkey 5T4 on …; assay: flow cytometry, HEK-293 cells transfected with cynomolgus monkey 5T4, PE secondary [II)D]
[10] = target: T1, full length human 5T4 (SEQ ID NO: 1) on …; assay: flow cytometry, MDA-MB-231 cells, PE secondary [III)D]
Protocol: Mono- and bivalent binding of 5T4 antibodies to MDA-MB-231 cells was determined by flow cytometry. Cells were incubated with increasing concentrations of antibodies. After secondary labelling with PE-conjugated goat-anti-human IgG F(ab′)2, the mean fluorescence intensity (MFI) was determined by flow cytometry.
as §3

[11] = target: T1, full length human 5T4 (SEQ ID NO: 1) on …; assay: flow cytometry, HeLa cells, PE secondary [II)D]
Protocol: as §2, §3

[12] = target: T1, full length human 5T4 (SEQ ID NO: 1) on …; assay: flow cytometry, HeLa cells, PE secondary [II)G]
[13] = target: T2, full length cynomolgus monkey 5T4 on …; assay: flow cytometry, HEK-293 cells transfected with cynomolgus monkey 5T4, PE secondary [II)H]

B1: bsIgG1-huCD3-H101G-FEALx5T4-226-FEAR (bispecific antibody)
heavy: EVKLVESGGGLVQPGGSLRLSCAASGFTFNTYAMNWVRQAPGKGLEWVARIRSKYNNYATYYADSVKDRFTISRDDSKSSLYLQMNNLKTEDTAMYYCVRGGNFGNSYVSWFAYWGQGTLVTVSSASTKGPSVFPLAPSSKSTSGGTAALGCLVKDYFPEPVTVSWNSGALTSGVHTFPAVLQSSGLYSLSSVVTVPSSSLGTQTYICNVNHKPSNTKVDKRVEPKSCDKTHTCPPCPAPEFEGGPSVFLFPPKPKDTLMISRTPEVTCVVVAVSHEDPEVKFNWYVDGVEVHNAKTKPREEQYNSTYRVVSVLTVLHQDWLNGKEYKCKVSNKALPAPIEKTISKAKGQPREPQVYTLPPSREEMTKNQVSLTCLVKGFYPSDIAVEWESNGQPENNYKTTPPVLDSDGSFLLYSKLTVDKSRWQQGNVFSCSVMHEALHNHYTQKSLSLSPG
light: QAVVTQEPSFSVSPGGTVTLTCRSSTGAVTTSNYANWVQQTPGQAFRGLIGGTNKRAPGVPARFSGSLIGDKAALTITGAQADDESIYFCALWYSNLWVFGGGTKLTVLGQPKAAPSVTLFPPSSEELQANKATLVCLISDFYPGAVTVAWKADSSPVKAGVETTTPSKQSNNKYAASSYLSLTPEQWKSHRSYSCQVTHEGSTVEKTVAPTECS
VH: QVQLQQWGAGLLKPSETLSLTCAVYGGSFSGYYWSWIRQPPGKGLEWIGEIDHSGSTNYNPSLKSRVTISVDTSKNQFSLKLSSVTAADTAVYYCAAWFGELWDYYYGMDVWGQGTTVTVSS
VL: EIVLTQSPATLSLSPGERATLSCRASQSVSSFLAWYQQKPGQAPRLLIYDASNRATGIPARFSGSGSGTDFTLTISSLEPEDFAVYYCQQRSNWPLTFGQGTRLEIK
notes: Fab-arm exchange product
EC50 (read off the curve) [1]: ~0.1 µg/mL
EC50 (read off the curve) [2]: ~0.04 µg/mL
EC50 (read off the curve) [3]: ~0.1 µg/mL
EC50 (read off the curve) [4]: ~0.04 µg/mL
EC50 (read off the curve) [5]: ~0.1 µg/mL
EC50 (read off the curve) [6]: ~0.02 µg/mL
EC50 (read off the curve) [7]: ~0.2 µg/mL
EC50 (read off the curve) [8]: ~0.06 µg/mL

B2: bsIgG1-huCD3-H101G-FEALx5T4-106-FEAR (bispecific antibody)
heavy: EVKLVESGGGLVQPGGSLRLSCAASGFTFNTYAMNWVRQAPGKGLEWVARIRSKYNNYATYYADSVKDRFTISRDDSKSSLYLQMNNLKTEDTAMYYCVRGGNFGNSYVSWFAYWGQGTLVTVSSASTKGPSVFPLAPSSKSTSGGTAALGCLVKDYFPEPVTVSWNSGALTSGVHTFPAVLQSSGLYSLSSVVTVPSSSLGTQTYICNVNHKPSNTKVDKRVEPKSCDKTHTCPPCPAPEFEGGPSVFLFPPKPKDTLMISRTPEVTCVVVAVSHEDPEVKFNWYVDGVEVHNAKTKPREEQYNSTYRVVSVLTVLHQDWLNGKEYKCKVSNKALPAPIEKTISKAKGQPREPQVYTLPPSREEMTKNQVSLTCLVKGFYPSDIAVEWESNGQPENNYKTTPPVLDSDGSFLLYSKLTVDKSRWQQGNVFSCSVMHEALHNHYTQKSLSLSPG
light: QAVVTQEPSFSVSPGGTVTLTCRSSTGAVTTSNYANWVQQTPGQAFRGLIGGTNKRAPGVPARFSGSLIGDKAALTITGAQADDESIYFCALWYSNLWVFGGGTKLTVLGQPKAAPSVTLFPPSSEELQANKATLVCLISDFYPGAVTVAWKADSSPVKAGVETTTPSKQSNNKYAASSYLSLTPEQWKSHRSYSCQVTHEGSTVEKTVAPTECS
VH: EVQLVQSGAEVKKPGESLKISCKGSGYRFTSYWIGWVRQMPGKGLEWMGIIYPGDSDARYSPSFQGQVTISADKSISTAYLQWSSLKASDTGMYYCARSVLFDYWGQGTLVTVSS
VL: AIQLTQSPSSLSASVGDRVTITCRASQGISSALAWYQQKPGKAPKLLIYDVSNLESGVPSRFSGSGSGTDFTLTISSLQPEDFATYYCQQFNSYPHTFGQGTKLEIK
notes: Fab-arm exchange product
binding result [9]: binds
EC50 (read off the curve) [10]: ~0.1 µg/mL
EC50 (read off the curve) [11]: ~0.1 µg/mL

B3: bsIgG1-huCD3-H101G-FEALx5T4-A1-FEAR (bispecific antibody)
heavy: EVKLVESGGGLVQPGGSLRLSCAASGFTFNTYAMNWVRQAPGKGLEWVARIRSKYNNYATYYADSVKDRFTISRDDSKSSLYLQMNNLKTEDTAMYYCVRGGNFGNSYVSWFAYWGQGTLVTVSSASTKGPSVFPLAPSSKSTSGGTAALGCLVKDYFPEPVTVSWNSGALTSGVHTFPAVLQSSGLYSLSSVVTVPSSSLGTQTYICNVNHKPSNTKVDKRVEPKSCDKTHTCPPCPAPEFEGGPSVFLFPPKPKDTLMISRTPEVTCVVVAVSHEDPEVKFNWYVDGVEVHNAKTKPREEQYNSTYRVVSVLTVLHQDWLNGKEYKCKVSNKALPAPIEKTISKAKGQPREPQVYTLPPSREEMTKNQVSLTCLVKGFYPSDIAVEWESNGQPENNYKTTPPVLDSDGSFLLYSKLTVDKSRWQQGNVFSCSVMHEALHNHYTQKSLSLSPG
light: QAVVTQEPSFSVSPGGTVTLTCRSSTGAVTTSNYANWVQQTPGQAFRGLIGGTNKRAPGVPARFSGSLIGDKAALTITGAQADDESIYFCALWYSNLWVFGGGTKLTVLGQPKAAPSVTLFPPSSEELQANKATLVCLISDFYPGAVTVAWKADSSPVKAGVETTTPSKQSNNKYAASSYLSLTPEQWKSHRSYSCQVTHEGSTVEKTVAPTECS
VH: QIQLVQSGPELKKPGETVKISCKASGYTFTNFGMNWVKQGPGEGLKWMGWINTNTGEPRYAEEFKGRFAFSLETTASTAYLQINNLKNEDTATYFCARDWDGAYFFDYWGQGTTLTVSS
VL: SIVMTQTPKFLLVSAGDRVTITCKASQSVSNDVAWYQQKPGQSPKLLINFATNRYTGVPNRFTGSGYGTDFTFTISTVQAEDLALYFCQQDYSSPWTFGGGTKLEIK
notes: Fab-arm exchange product
binding result [12]: binds
binding result [13]: binds

B4: IgG1-5T4-A1-FEAR (antibody, V domains shown)
VH: B3 VH
VL: B3 VL
notes: Based on A1 from Wyeth; IgG1 with L234F, L235E, D265A, K409R (FEAR)
binding result [12]: binds
EC50 (read off the curve) [13]: ~0.1 µg/mL
